Tests used:
[1] = target: T1, TAF1 tandem bromodomain (BD1-BD2) (human, UniProt P21675 1402-1656); assay: EMSA; settings: EMSA: 50 mM HEPES pH 7.5, 100 mM NaCl, 35 nM DNA, 1 h at 4 C, 6% native PAGE, 0.5x TBE, 100 V on ice. HeLa mononucleosome pulldown (undefined DNA) not listed.
T1 sequence: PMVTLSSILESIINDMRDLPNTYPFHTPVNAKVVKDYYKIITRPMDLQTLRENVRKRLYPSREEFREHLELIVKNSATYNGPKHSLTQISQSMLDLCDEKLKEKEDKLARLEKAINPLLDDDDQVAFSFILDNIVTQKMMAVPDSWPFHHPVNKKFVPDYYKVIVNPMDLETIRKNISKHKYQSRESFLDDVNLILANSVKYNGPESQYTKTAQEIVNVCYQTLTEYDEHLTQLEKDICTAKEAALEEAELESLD

[2] = target: TAF1 tandem bromodomain BD1 triple mutant (R1435S/K1436S/R1437S), 6xHis-tagged (human); assay: pull-down; 20 μg hyperacetylated HeLa mononucleosomes (cells treated with trichostatin A) mixed with 50 μM 6xHis-tagged TAF1 tandem bromodomain or its mutant, 4°C, 60 min; captured on Ni-NTA agarose; washed with 50 mM HEPES pH 7.5, 500 mM KCl, 2 mM EDTA, 0.1% Tween-20; eluted with 500 mM imidazole; western blot with anti-H4K5ac and anti-H4K8ac
[3] = target: Histone H4 H4K5acK12ac peptide (Homo sapiens) (UniProt P62805); settings: cited from earlier work
[4] = target: Histone H4 H4K8acK16ac peptide (Homo sapiens) (UniProt P62805); settings: cited from earlier work
[5] = target: T1, TAF1 tandem bromodomain (BD1-BD2); assay: EMSA; no peptide; EMSA: 50 mM HEPES pH 7.5, 100 mM NaCl, 35 nM DNA, 1 h at 4 C; 6% native PAGE, 0.5x TBE, 100 V on ice. HeLa mononucleosome pulldown (undefined DNA) not listed.; settings: protein: recombinant; tags: C-terminal 6xHis; label: none (SYBR Gold stain); blunt

Q: Which Kd ([1]; 320 uM H4(1-15)K5acK12ac peptide) does the source give for 147 bp Widom 601 DNA here?
A: 19.7 µM

Q: And the Kd ([1]; no peptide)?
A: 16.8 µM

Q: For “acetylated mononucleosomes isolated from HeLa cells (from UniProt P62805 1-103) (complex)”, which fold decrease in binding against wildtype [2] is on record?
A: 1.5 fold

Q: For “TAF1 tandem bromodomain (from UniProt P21675)”, which Kd [3] is on record?
A: 1.4 µM

Q: What about the Kd [4] of the same molecule?
A: 5.3 µM

B1: 147 bp GC-rich 601 DNA (AT-tracts mutated to GC) (dsDNA)
DNA 1: CTGGAGAATCCCGGTGCCGAGGCCGCTCGACTGGTCGTAGACAGCTCTAGCACCGCTCAGACGCACGTACGCGCTGTCCCCCGCGTTTCAGCCGCCAAGGGGACTGCTCCCTAGTCTCCAGGCACGTGTCAGATGCGTACATCCTGT
DNA 2: ACAGGATGTACGCATCTGACACGTGCCTGGAGACTAGGGAGCAGTCCCCTTGGCGGCTGAAACGCGGGGGACAGCGCGTACGTGCGTCTGAGCGGTGCTAGAGCTGTCTACGACCAGTCGAGCGGCCTCGGCACCGGGATTCTCCAG
Q: Which Kd [5] does the source give for B1 here?
A: 34.2 ± 5.4 µM

— PMC12599243, “Mechanistic insights into DNA binding by BD1 of the TAF1 tandem bromodomain module”
